The values that follow come from PMC4619462, “Description of the first fungal dye-decolorizing peroxidase oxidizing manganese(II)” (Applied Microbiology and Biotechnology, 2015).

Common to all, as to assay: purified protein
Substrate in data set [1]: Nc1c(S(=O)(=O)O)cc(Nc2cccc(S(=O)(=O)CCOS(=O)(=O)O)c2)c2c1C(=O)c1ccccc1C2=O
Type of data set: biochemical, Pleurotus ostreatus. As to conditions: 0.25 mM H2O2, 0.1 M tartrate pH 3.5, 25 °C.

Substrate in data set [2]: COc1cccc(OC)c1O
The note with it: 0.25 mM H2O2, 0.1 M tartrate pH 3.5 (table note; methods say pH 3), 25 °C.

Substrate in data set [3]: Nc1c(S(=O)(=O)O)cc(Nc2cccc(S(=O)(=O)CCOS(=O)(=O)O)c2)c2c1C(=O)c1ccccc1C2=O
The note with it: 0.25 mM H2O2, 0.1 M tartrate pH 3.5, 25 °C, pH 3.5.

Substrate in data set [4]: Nc1c(N=Nc2ccc(S(=O)(=O)CCOS(=O)(=O)O)cc2)c(S(=O)(=O)O)cc2cc(S(=O)(=O)O)c(N=Nc3ccc(S(=O)(=O)CCOS(=O)(=O)O)cc3)c(O)c12
As to conditions: 0.25 mM H2O2, 0.1 M tartrate pH 3.5 (table note; methods say pH 3), 25 °C.

Substrate in data set [5]: CCn1c(=NN=c2sc3cc(S(=O)(=O)O)ccc3n2CC)sc2cc(S(=O)(=O)O)ccc21
Type of data set: biochemical, Pleurotus ostreatus. The note with it: 0.25 mM H2O2, 0.1 M tartrate pH 3.5, 25 °C.

B1: Pleos-VP2 (Pleurotus ostreatus) (protein)
chain: VTCATGQTTANEACCALFPILDDIQTNLFDGAQCGEEVHESLRLTFHDAIAFSPALTNAGQFGGGGADGSMIIFSDTEPNFHANLGIDEIVEAQKPFIARHNICAADFIQFAGAIGVSNCAGAPRLNFFLGRPDATQIPPDGLVPEPFDDVTKILSRMGDAGFSTVEVVWLLSSHTIAAADLVDPSIPGTPFDSTPSTFDSQFFLETMLQGTAFPGTPGNQGEVESPLAGEMRLQSDFLLARDSRSACEWQSMVNNMPKIQNRFTQVMKKLSLLGHNQADLIDCSDVIPVPKTLTKAATFPAGKSQADVEIVCNAAATPFPALSSDPGPVTAVPPVPPS
As for B1, in “purified protein [1]”, the Km was found to be 16 ± 1 µM, the kcat stood at 8 ± 0.2 s⁻¹ and the kcat/Km worked out at 495000 M⁻¹ s⁻¹.

B2: Pleos-DyP4 (Pleurotus ostreatus PC15) (protein)
chain: MTTPAPPLDLNNIQGDILGGLPKRTETYFFFDVTNVDQFKANMAHFIPHIKTSAGIIKDREAIKEHKRQKKPGLVPMAAVNVSFSHLGLQKLGITDDLSDNAFTTGQRKDAEILGDPGSKNGDAFTPAWEAPFLKDIHGVIFVAGDCHGSVNKKLDEIKHIFGVGTSHASISEVTHVRGDVRPGDVHAHEHFGFLDGISNPAVEQFDQNPLPGQDPIRPGFILAKENGDSRAAARPDWAKDGSFLTFRYLFQMVPEFDDFLESNPIVLPGLSRKEGSELLGARIVGRWKSGAPIEITPLKDDPKLAADAQRNNKFDFGDSLVRGDQTKCPFAAHIRKTYPRNDLEGPPLKADIDNRRIIRRGIQFGPEVTSQEHHDKKTHHGRGLLFVCYSSSIDDGFHFIQESWANAPNFPVNAVTSAGPIPPLDGVVPGFDAIIGQKVGGGIRQISGTNPNDPTTNITLPDQDFVVPRGGEYFFSPSITALKTKFAIGVASPAPHSQAPISA
On to B2, for which the Km in the data set “purified protein [2]” came to 126 ± 21 µM; in the data set “purified protein [3]”, 82 ± 13 µM; in “purified protein [4]”, 5.7 ± 0.4 µM; in “purified protein [5]”, 787 ± 160 µM. The kcat came out at 268 ± 24 s⁻¹ in the data set “purified protein [2]”, 152 ± 13 s⁻¹ in the data set “purified protein [3]”, 5.3 ± 0.8 s⁻¹ in the data set “purified protein [4]” and 277 ± 24 s⁻¹ in the data set “purified protein [5]”. Further, the kcat/Km in “purified protein [2]” came out at 2.12e+06 M⁻¹ s⁻¹; in “purified protein [3]”, 1.86e+06 M⁻¹ s⁻¹; in “purified protein [4]”, 1.08e+06 M⁻¹ s⁻¹; in “purified protein [5]”, 352000 M⁻¹ s⁻¹.

One may read the Km as the substrate concentration at which the rate is half of its maximum. In general, kcat refers to the number of substrate molecules converted per active site and unit of time at saturation. As usually defined, the kcat/Km is the turnover number divided by the Michaelis constant.
